# Test results as given in publication PMC2175517.
# Target: poly(ADP-ribosyl)ated GST-Sp1-8xHis (UniProt P08047)
# Experiment: EMSA
# Details: after PARP-1 + 200 uM NAD+ + nicked DNA; approximately 71% reduction; EMSA in buffer D (5 mM HEPES, 10% glycerol, 0.05 mM EDTA, 0.125 mM PMSF), 25 ng poly(dI-dC) (omitted for recombinant Sp1), room temperature 5 min; pH not …
# UniProt P08047, sequence (P08047 whole entry): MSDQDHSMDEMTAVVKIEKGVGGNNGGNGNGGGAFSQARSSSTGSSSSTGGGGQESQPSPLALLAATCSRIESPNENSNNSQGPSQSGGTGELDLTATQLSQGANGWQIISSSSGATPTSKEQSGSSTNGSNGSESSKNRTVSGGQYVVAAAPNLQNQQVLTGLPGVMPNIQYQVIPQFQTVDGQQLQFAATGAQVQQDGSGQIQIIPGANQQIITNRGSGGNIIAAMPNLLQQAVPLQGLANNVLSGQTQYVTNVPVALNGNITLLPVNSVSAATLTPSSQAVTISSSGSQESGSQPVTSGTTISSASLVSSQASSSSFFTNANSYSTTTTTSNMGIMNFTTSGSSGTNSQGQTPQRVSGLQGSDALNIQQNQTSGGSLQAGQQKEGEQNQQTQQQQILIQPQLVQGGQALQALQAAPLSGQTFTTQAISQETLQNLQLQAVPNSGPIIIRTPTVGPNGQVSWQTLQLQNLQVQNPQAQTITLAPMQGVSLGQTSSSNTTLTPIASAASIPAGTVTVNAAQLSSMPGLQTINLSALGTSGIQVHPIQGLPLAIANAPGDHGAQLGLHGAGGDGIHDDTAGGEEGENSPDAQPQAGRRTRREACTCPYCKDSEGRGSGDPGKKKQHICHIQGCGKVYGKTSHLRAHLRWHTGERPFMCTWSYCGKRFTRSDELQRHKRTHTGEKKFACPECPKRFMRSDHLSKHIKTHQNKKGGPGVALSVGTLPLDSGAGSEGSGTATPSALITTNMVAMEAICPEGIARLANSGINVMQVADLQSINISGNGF
sequence,measurement,value
GATCATATCTGCGGGGCGGGGCAGACACAG (double strand) [Sp1 oligonucleotide],binding signal (% of unmodified Sp1),29
